Source: US6071709A, “Nerve growth factor/receptor complex” (The United States of America as represented by the …, priority 1992, dated 2000)

Target: T1, gp140^prototrk (Rattus norvegicus, UniProt P35739)
T1 construct: tyrosine phosphorylation in response to NGF addition to PC12 cells; endogenous in cells; host or cells: PC12 cells
Experiment: trk tyrosine phosphorylation in PC12 cells treated with NGF (32P labelling / Ptyr immunoblot of trk immunoprecipitates)
Format: cell-based
Description: FIGS. 1A-C show the tyrosine phosphorylation of gp140trk in PC12 cells and trk-expressing NIH-3T3 cells treated with NGF. FIG. 1A, gp140trk immunoprecipitated from PC12 cells or trk-expressing 3T3 cells labeled with ^32 P-orthophosphate. Immunoprecipitates were prepared with rabbit anti-trk antisera 43-4 (D. Martin-Zanca et al., Mol Cell. Biol. 9:24-33 (1989)) from lysates prepared from 3T3 cells expressing the rat trk gene (trk 3T3) (lane 1) or PC12 cells treated for 5 min with 100 ng/ml NGF at 37° C. (lanes 2 and 4) or mock treated (lane 3). The immunoprecipitate shown in lane 2 was prepared in the presence of the peptide used to generate the rabbit 43-4 trk antibody (Martin-Zanca et al., (1989)). Shown in FIG. 1B is the phosphoamino acid analysis of trk proteins phosphorylated in vitro in p140trk immunoprecipitates from NGF treated PC12 cells in vivo from NGF treated (+) or untreated (-) PC12 cells, or in vivo from trk 3T3 cells. The positions of phosphoserine (S), phosphothreonine (T), and phosphotyrosine (Y) are indicated. FIG. 1C, trk proteins from trk 3T3 cells phosphorylated […]. In lanes 1-3, gp140trk immunoprecipitates were probed with P-tyr antibodies. In lanes 4-6, gp140trk proteins were phosphorylated in vitro in kinase assays. Cells were treated with suramin (lanes 2 and 5) or with 500 ng/ml NGF for 10 min following suramin treatment. The band migrating at 110 kDa is a glycosylation precursor of gp140^prototrk (Martin-Zanca et al., (1989)). The band at the bottom of the figure is IgG. Molecular weight markers in kDa are indicated.
rtrk 3T3 cells were generated by CaPO4 mediated transfection of a rat trk cDNA into NIH-3T3 cells. Rat trk cDNAs were obtained from an embryonic rat DRG cDNA library. The longest trk cDNA obtained (2.4 kbp) was missing approximately 150 bp of the coding region as compared to available mouse and human trk sequence. The missing bases plus minimal (~50 bp) 5' flanking non-coding sequences were replaced from mouse first coding exon sequences and the reconstructed gene was placed downstream of an MSV-LTR. PC12 cells or rtrk 3T3 cells (2×10^7) were labeled with ^32 P orthophosphate (1 mCi.ml in 4 ml) for 4 hr at 37° C. Cells were treated with NGF for the indicated times, washed, lysed in buffer containing 1% NP40, and the lysates immunoprecipitated with trk antibody 43-4 (D. R. Kaplan et al., Cell 61:125-133 (1990)) and electrophoresed on 7.5% SDS-PAGE gels as previously described (Kaplan et al., (1990)). For b, the phosphorylated trk bands were eluted from the gel and phosphoamino acid analysis performed as described (B. M. Sefton et al., J. Cell 24:165-174 (1981)). gp140trk protein from NGF treated PC12 cells was phosphorylated in vitro. For c, rtrk 3T3 cells were treated with 1 mM suramin in Dulbecco's Modified Eagle Medium (DMEM) for 2 h or mock treated. Following extensive washing of the cells with DMEM, NGF was added for the time indicated. Cells were lysed and the lysates were immunoprecipitated with trk antibody. Immunoprecipitates were either subjected to immunoblot analysis with the phosphotyrosine (Ptyr) monoclonal antibody 4G10 (Lanes 1-3), or were analyzed in kinase assays. (D. K. Morrison, et al. Cell 58:649-657 (1989) and Kaplan et al., (1990)). Similar amounts of trk protein were present in each lane.
FIGS. 2A-C. Time course, growth factor specificity, and dose response of trk tyrosine phosphorylation in PC12 cells. A, Time course of trk tyrosine phosphorylation. Cells (2×10^7) were treated with 50 ng/ml NGF at 37° C. B, Effects of growth and differentiation factors on trk tyrosine phosphorylation. Cells were treated with 100 ng/ml NGF, 100 ng/ml basic fibroblast growth factor (FGF) (Boehringer Mannheim Biochemicals), 100 ng/ml epidermal growth factor (EGF) (Upstate Biotechnology, Inc.), 100 nM insulin (Sigma), or 1 μg/ml phorbal 12-myristate […] (PMA) (Sigma) for 15 min. at 37° C. C, dose response of trk tyrosine phosphorylation. […]

T1 sequence (P35739 33-799): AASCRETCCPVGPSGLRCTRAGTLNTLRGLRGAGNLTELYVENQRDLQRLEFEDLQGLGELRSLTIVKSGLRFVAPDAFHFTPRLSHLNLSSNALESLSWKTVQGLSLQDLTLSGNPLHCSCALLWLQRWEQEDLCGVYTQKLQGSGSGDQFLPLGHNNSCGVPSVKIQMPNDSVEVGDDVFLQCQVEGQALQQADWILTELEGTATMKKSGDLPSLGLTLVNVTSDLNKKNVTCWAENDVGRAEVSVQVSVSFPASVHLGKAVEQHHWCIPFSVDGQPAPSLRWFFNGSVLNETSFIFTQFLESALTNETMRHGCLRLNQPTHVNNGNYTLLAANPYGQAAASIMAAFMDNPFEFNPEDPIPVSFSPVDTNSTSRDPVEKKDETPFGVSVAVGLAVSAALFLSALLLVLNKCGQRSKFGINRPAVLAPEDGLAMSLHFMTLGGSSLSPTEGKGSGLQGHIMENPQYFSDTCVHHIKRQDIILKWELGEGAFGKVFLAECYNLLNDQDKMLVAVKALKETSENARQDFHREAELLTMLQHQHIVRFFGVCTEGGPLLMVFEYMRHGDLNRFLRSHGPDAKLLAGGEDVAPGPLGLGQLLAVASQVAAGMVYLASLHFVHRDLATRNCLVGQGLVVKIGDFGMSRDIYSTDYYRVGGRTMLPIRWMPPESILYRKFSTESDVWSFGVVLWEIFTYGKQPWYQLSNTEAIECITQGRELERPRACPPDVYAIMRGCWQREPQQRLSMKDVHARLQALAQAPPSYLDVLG

For “NGF: neurotrophic polypeptide factor, nerve growth factor; ligand of trk proto-oncogene receptor”, the “time to maximum levels of trk tyrosine phosphorylation” value (50 ng/ml NGF, 37° C.) was “five”, the “stimulation of tyrosine phosphorylation of gp140^prototrk” value (32P-orthophosphate labelled, 50 ng/ml NGF for 5 min) was 20 fold and the “half maximal tyrosine phosphorylation concentration” value (30 min at 37° C., dose response) was 0.1 ng/mL. The “trk tyrosine phosphorylation after two days of treatment” value (fully differentiated, two days of NGF) was “Residual phosphorylation was detected”.
